The values below come from the DeepSol protein solubility set.

The nature of the data set: soluble on expression in E. coli; label from the status in PepcDB or PDB records.
For “LDINKPENVISKEVSFLGEALPKSIKSECPNESFTLDDKDVVKSTSGSVQNEPLKNINENIYDPKLKKALDKSKPEILIYHSHTTEAYKPYPADSLNSTQNVCAVGDELVKELGEKYGIYAINDKTVHNVVDYNKSYTRSGETLDKYLKQYGDFKMIIDMHRDSDVPKSKVTARINGEDVAKFMFVMTRKNPHFDKNMALVNGLVSICNKDFPGIFNGIYYYDYGINYYNQQKSNNAFLLEVGSDINTIDEAKGTSKYLARIIAEYLNGKK”, the “soluble on expression in E. coli” value is on record as “not soluble”.
On to “LDTTRESIRIGDNLGNVINDPISSREIETQNERDNDLINRYYRPDELEKVKVVDFKPIILNLDELDNDELIMALEEKPAYSRTGVLLSRIDNIRMRIAESAGRLKKDVVRSEESERPAFESERSSSPTTISFN”, for which the “soluble on expression in E. coli” value is recorded as “not soluble”.
On to “LEADKCKEREEKIILVSSANEIDVRPCPLNPNEHKGTITWYKDDSKTPVSTEQASRIHQHKEKLWFVPAKVEDSGHYYCVVRNSSYCLRIKISAKFVENEPNLCYNAQAIFKQKLPVAGDGGLVCPYMEFFKNENNELPKLQWYKDCKPLLLDNIHFSGVKDRLIVMNVAEKHRGNYTCHASYTYLGKQYPITRVIEFITLEENKPTRPVIVSPANETMEVDLGSQIQLICNVTGQLSDIAYWKWNGSVIDEDDPVLGEDYYSVENPANKRRSTLITVLNISEIESRFYKHPFTCFAKNTHGIDAAYIQLIYPVTNFQK”, for which the “soluble on expression in E. coli” value is reported as “soluble”.
“LGGNANAGLEVLKDATAQAIADAKALLAAGKVSVKIQEPCDEILFSRAKVWNGEKWACVTIVGGHTNIVHIETHNGVVFTQQACVTEGEQESPLTVLSRTTLAEILKFVNEVPFAAIRFILDSAKLNCALSQEGLSGNWGLHIGATLEKQCARGLLAKDLSSSIVIRTSAASDARMGGATLPAMSNSGSGNQGITATMPVVVVAEHFGADDERLARALMLSHLSAIYIHNQLPR”: the “soluble on expression in E. coli” value is reported as “not soluble”.
Turning to “LGKFSQTCYNSAIQGSVLTSTCERTNGGYNTSSIDLNSVIAAVDGSLKWPSNFIEACRNTQLAGSSELAAECKTAAGQFVSTKINLDDHIANIDGTLKYE”, the “soluble on expression in E. coli” value was “soluble”.
“LGLERDVSRAVELLERLQRSGELPPQKLQALQRVLQSRFCSAIREVYEQLYDTLDIT”: the “soluble on expression in E. coli” value was “soluble”.
“LKRYIAGLACAATAVLSAPALASTAHAQAADPISALKSQFSSGRGVNFVDTTKTQGPQGNMVLAKRTGALQFGPSGISASDQTAQLRFKASDFEDLTEGEEDEDFSKFFRGLAKPERVVRIKNTTYVSGGVMGEFMPADKTWVRFPDGLLGFTGAMSQFVNVAEPATLKALLAHATKHGGTYSGKITFGELNKVSPWFRASLGAPTAKTAKIVVSWKLFLGSDRLAKRLVTTYSTAGSAESTVTVDTRYTGWGSKVTVKAPPADQVADLKDLEEGAETATSIPLLGN”: the “soluble on expression in E. coli” value was “soluble”.
Turning to “LKSLKDVTDHKKVNANDEDYKYIDMWKRLYQGHYAEWHNLNYEHNGNPVNRRQLSMNLPKVTAKYMSKLLFNEKVKINIDDKAAEEFVLNVLKTNGFTKNMERYIEYGEAMGGFVIKVYHDGNKNVKISFATADCMYPLSNDSENVDECVIANSFHKNNKYYKLLEWNEWKGKEEKVYTITTELYQSDNPDELGGEVSLKLLFNDIEPVVPLPPLTRPTFIYIKPNIANNKNLTSPLGISIYANALDTLKTLDLMFDSYYQEFKLGKKKVLVPSSFVKTAVNLDGSTTQYFDSTDEAFFLYQGDQDADGKSVKDISVEIRSTEFIESINAMLRIYAMQVGLSAGTFTFDENGLKTATEVVSEKSETYQTKNSHSQLIEQGIKEMIVSILEVGKFIEAYSGDVVELDTITVDFDDSIAQDEDTTINRYTTAKNQGMIPLKIALQRAWNITDAEAEEWKEEIEKDARAEIPG”, the “soluble on expression in E. coli” value is recorded as “not soluble”.
As for “LLQLNIQNFAIVRSLDIDWQSGMTTITGETGAGKSIAIDALGLCLGDRATTNVVRPNCKKADLAATFEIKKNKMARAWLKQHELVSEHDSECILRRVISAEGRSKSYINGSQVPLVQLKEIGQLLINIHGQHDHQLIVKANQQCRLLDNYANHTPLLSAVKHYAQQWNKLNKELEMLQQSKQQREAEQQLIQYQVTELDEFSLQ”, the “soluble on expression in E. coli” value is “not soluble”.
“LLRMHESLARRQLAEVERLDLVRQVRELIGELLVDGGATLEQVAARLGMPARRLRERLAMAGVRFNDLVTDYRCRLAKE”: the “soluble on expression in E. coli” value is on record as “not soluble”.
With “LLSPPIALKPLDSSAKWRIIYWNPNGCDKTCLKQLNMLGRVRLSFGRKLYQVDEWLLLSNKDSLIAEELKPILKEQDIHVAALSLTEMSKLSTLYPEAKIFIANPDNYLILSYQPGCNPGDIYKDLKLLLNTTE”, the “soluble on expression in E. coli” value is given as “not soluble”.
For “LPAGLYFVGTPIGSARDITLRALDVLASAEVIAAEDTRSLRHLLDIHGVPLDGRRVLAYHDHSGAGAQARLLEALAEGKSVAYASEAGMPLIADPGFELSRAAAEAGHMVTCAPGPS”, the “soluble on expression in E. coli” value is “not soluble”.
Take “LPRELRPLMKKPLGILYRGKGRDTIEKFAGELSSPTKLISVGDVTTFHLLEAGIIPDICIVDDRTKRKPVSSDVSVRNRDKVYEEVSVDNPAGIITDELIRTLCEAFASEKLLRIFVRGEEDLATLPVILLAPPGSVVLYGQPDEGVVFVEVTEKKKEEIRALFEKLISK”: the “soluble on expression in E. coli” value is “not soluble”.
With “LQASVNLFPTISVAPSADTSSERSIYKARFLENVAAAETEKQVALAQGRAETLAGAMPNEAGGHPDARQLWDSPETAPAARTPQSPAPCVLLRAQRSLAPEPKEPLIPASPKAEPIWELPTRAPRLSIGDLDFSDLGEDEDQDMLNVESVEAGKDI”, the “soluble on expression in E. coli” value is listed as “not soluble”.
“LRGFIIGRFQPFHKGHLEVIKKIAEEVDEIIIGIGSAQKSHTLENPFTAGERILMITQSLKDYDLTYYPIPIKDIEFNSIWVSYVESLTPPFDIVYSGNPLVRVLFEERGYEVKRPEMFNRKEYSGTEIRRRMLNGEKWEHLVPKAVVDVIKEIKGVERLRKLAQTDK”: the “soluble on expression in E. coli” value is on record as “soluble”.
Turning to “LRVSDGIAGKMTVLALKNTDERLRADKSVSVGFVLAALMWPELERHWKSNLQQGLKPAPALSDAINTMRETVERGWGVPQRFSATMREIWMFQPQFENRKGARPHKLFAQARFRAAYDFLLLRAETGNADRALAEWWTAFQTASTEQRSEMTKNEAAARHEKNEGQAKKRRRRRRKPKPKVVGTDWE”, the “soluble on expression in E. coli” value is listed as “not soluble”.
For the sequence “LSKDILQLVGGEENVQRVIHCMTRLRFNLHDNAKADRSQLEQLPGVMGTNISGEQFQIIIGNDVPKVYQAIVRHSNLSDEKSAGSSSQKKNVLSAVFDVISG”, the “soluble on expression in E. coli” value is on record as “not soluble”.
With “LSKGTRDRKNIYVSPEEMARQQRFIDEIKELNYRKEVKTGKKKLYCLNTFGCQMNEHDSEKLAGMLAEMGYAETDNVNESDLVIYNTCCVRENAELKVYGHLGMLKPLKNQKPDLVIAVCGCMMQQPEVVEHIKKTYSHVDLIFGTHNLYKFPELLYSAMDSQTTVVDVWDCDGQIAENVAIERKDGVKAWVTVMYGCNNFCTYCIVPYVRGRERSRSMDDILEEVRMLGRQGFKEITLLGQNVNSYGKDIGDGTSFAELIREVNKIPGIERIRFTTSHPKDLSDDLIYAMRDCEKVCEHLHLPFQAGSTRILKLMNRKYTKEDYINLVAKIKENIPDIALTTDIIVGFPGETEEDFSDTLDILEKVRFDNAYTFLYSKRTGTPAAKMEDQVPEEVKKERFQRLLETQNRISKEINDTFLGKVVEVLVEGVSKTNDKIFTGRTRGNKVVNFEADASLIGKLVNVRINTVKTWSLEGSIVR”, the “soluble on expression in E. coli” value is reported as “soluble”.
Turning to “LTLRAGREQNIPMNLSDSWAARRPVTARVSAAEAVLADLRDAITSGELSVGERLPSEASLAARHGVSRSVIREALRSCHALGLTETKSGLGTFVVSDSIARDLDFGNYAANELVEARPHVEIPAAGWAAQRHTAEDLAALRGLVDQMRDEDDPLVWVSLDAQFHAFIARTSRNRVFESVIVDIREALTRQSETLNLVAGRQQKSNDEHDRIVEGIASGSYDKAARAMAEHLDAVRVALESVVGEAGPDRRQ”, the “soluble on expression in E. coli” value is reported as “not soluble”.
As to “MAAACICQPNLLEINVSDGPLDMIRKKRKIQQPQLRPPLRENKCQPHFSVRKVNQSYIISLHKEITCQLIAEIVKQKLSRIWEKVYIPSYELISDKDGNQIYVEQSVDENRLTSEIMEKLDPNNIDIEAIEILFDDYHLELSRLTNGIIISSANDHFYREFSFNNIIDDNFKICGTSMSADSFDKIYGVMWIEVPFNGNGLQNDSAVNRVSTSHNQIEELNDIEQEIRAFNISRSNQESIIKKEVSRRLNGR”, the “soluble on expression in E. coli” value is recorded as “not soluble”.
As for “MAAAGARPVELGFAESAPAWRLRSEQFPSKVGGRPAWLGAAGLPGPQALACELCGRPLSFLLQVYAPLPGRPDAFHRCIFLFCCREQPCCAGLRVFRNQLPRKNDFYSYEPPSENPPPETGESVCLQLKSGAHLCRVCGCLGPKTCSRCHKAYYCSKEHQTLDWRLGHKQACAQPDHLDHIIPDHNFLFPEFEIVIETEDEIMPEVVEKEDYSEIIGSMGEALEEELDSMAKHESREDKIFQKFKTQIALEPEQILRYGRGIAPIWISGENIPQEKDIPDCPCGAKRILEFQVMPQLLNYLKADRLGKSIDWGILAVFTCAESCSLGTGYTEEFVWKQDVTDTP”, the “soluble on expression in E. coli” value is reported as “soluble”.
“MAAAKVALTKRADPAELRTIFLKYASIEKNGEFFMSPNDFVTRYLNIFGESQPNPKTVELLSGVVDQTKDGLISFQEFVAFESVLCAPDALFMVAFQLFDKAGKGEVTFEDVKQVFGQTTIHQHIPFNWDSEFVQLHFGKERKRHLTYAEFTQFLLEIQLEHAKQAFVQRDNARTGRVTAIDFRDIMVTIRPHVLTPFVEECLVAAAGGTTSHQVSFSYFNGFNSLLNNMELIRKIYSTLAGTRKDVEVTKEEFVLAAQKFGQVTPMEVDILFQLADLYEPRGRMTLADIERIAPLEEGTLPFNLAEAQRQKASGDSARPVLLQVAESAYRFGLGSVAGAVGATAVYPIDLVKTRMQNQRSTGSFVGELMYKNSFDCFKKVLRYEGFFGLYRGLLPQLLGVAPEKAIKLTVNDFVRDKFMHKDGSVPLAAEILAGGCAGGSQVIFTNPLEIVKIRLQVAGEITTGPRVSALSVVRDLGFFGIYKGAKACFLRDIPFSAIYFPCYAHVKASFANEDGQVSPGSLLLAGAIAGMPAASLVTPADVIKTRLQVAARAGQTTYSGVIDCFRKILREEGPKALWKGAGARVFRSSPQFGVTLLTYELLQRWFYIDFGGVKPMGSEPVPKSRINLPAPNPDHVGGYKLAVATFAGIENKFGLYLPLFKPSVSTSKAIGGGP”: the “soluble on expression in E. coli” value is listed as “not soluble”.
